Measured values reported in patent US11988675B2, “Methods for quantifying frataxin activity” (Larimar Therapeutics, Inc., priority 2019, dated 2024).
Read-outs that look alike come from different tables or passages of the source.

How the values were obtained:
FXN fusion protein = target: T1, FXN fusion protein (Homo sapiens, UniProt Q16595); assay: HQ assay in the presence of NADH or NADPH (FIG. 3, Panel B); format: biochemical; details: added to the assay with Fe^3+
T1 sequence (Q16595 with tags, fused parts or gaps): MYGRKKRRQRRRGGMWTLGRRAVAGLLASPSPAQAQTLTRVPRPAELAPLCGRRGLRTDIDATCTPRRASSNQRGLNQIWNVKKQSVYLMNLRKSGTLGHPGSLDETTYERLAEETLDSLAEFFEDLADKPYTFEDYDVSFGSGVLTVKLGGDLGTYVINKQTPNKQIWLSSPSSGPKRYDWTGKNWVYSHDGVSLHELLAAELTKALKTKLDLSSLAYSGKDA
Experimental: Redox activity of the FXN fusion protein was also measured in the presence of NADPH and NADH.

[1] = in the absence of Fe^3+; 10 μM FXN fusion protein, 10 μM HQ, 5 μM H2DCF
Experimental: In another experiment, the effect of the presence of Fe^3+ ions on the activity of an exemplary FXN fusion protein was studied. In this experiment, the kinetics of ROS generated over time was measured in assay mixtures containing 10 μM exemplary FXN fusion protein, 10 μM HQ, and 5 μM H2DCF. One assay mixture also contained 1 mM deferoxamine, an iron chelator.

[2] = Temperature stability study: HQ assay after one month storage; format: biochemical
Experimental: The goal of this experiment was to evaluate thermal stability of an exemplary FXN fusion protein by evaluating the activity of the FXN fusion protein after short-term storage (one month) at different temperatures.
(SPL1), 2-4° C. (SPL2) and 25° C. (SPL3), as compared to the DS control. […] (SPL1), 2-4° C. (SPL2) and 25° C. (SPL3), as compared to the DS control.

[3] = in the presence and absence of metal ions; FIG. 1
Experimental: Protocol for Hydroquinone (HQ) Reduction Assay
a. 1 ml of 1 mM H2DCFDA (in DMSO) is added to 20 mL of 0.01 M NaOH working solution to generate the activating solution. The solution is stirred for 30 minutes at room temperature in the dark.
b. 79 mL of 33 mM NaH2PO4 solution is added to the activating solution to yield a final concentration of 10 μM H2DCF.
b. Excitation and emission reading of the plate is performed every minute, or as required, with a spectrometer set for the following parameters: excitation at 485/20, emission at 528/20, optics from the top, a read height of 1 mm, and a gain of 50.
To each well add: • i. 10 μL of 20× Hydroquinone (to 20 μM final concentration) • ii. 10 μL of 20×Mn^2 (5 μM final concentration)
b. Tris Buffer Addition • i. FXN protein sample well: 168 μL • ii.
b. 10 μL of H2DCF (10 μM working solution) is added to every well (except the DCF standard curve) to arrive at a final concentration of 0.5 μM H2DCF.
b. […] Velocity calculated on 5 points; • 3. Relative fluorescence units (RFU) per minute. • ii. Vi generated from the fluorescence scanner is plotted on a scatter plot • 1. […]
c. […] The line should go through 0,0, and the slope recorded. […]
Generation of ROS, i.e., superoxide, was detected using an ROS detector compound, such as for example, 2′,7′-dichlorodihydrofluorescein (H2DCF), and was followed kinetically, as shown in Panel A of FIG. 1. […]

[4] = Chemical stability study: HQ assay after chemical stress; format: biochemical
Experimental: The goal of this experiment was to evaluate stability to chemical stress of an exemplary FXN fusion protein by evaluating the activity of the exemplary FXN fusion protein after its exposure to chemical stressors that may trigger protein denaturation and/or degradation of the FXN fusion protein.
Briefly, study control was stored at 2-8° C. over the course of the study. Each treatment was conducted as follows:
i. Acid treatment: 1N HCl was added to the solution containing FXN fusion protein until a pH≤4 was reached. The sample was kept at 37° C. for 2 days, and then the buffer exchanged for the buffer of the DS formulation. The sample was stored at 2-8° for the remainder of the study.
ii. Alkaline treatment: 1M Tris base was added to the solution containing FXN fusion protein until a pH≥10 was reached. The sample was kept at 37° C. for 2 days, and then the buffer was exchanged for the buffer of the DS formulation. The sample was stored at 2-8° C.
iii. Acid and Base control: solution containing FXN fusion protein was stored at 37° C. for 2 days, and then stored at 2-8° C.
iv. Oxidation stress treatment: exemplary FXN fusion protein was incubated in the presence of 0.05% hydrogen peroxide at 37° C. for 2 hours and then stored at 2-8° C.
v. Oxidation control: exemplary FXN fusion protein was incubated at 37° C. for 2 hours and then stored at 2-8° C.
vi. Heat stress treatment: exemplary FXN fusion protein was incubated at 50° for 2 hours then stored at 2-8° C.
All samples were analyzed for appearance, pH, protein quantification (by A280), size-exclusion ultra-performance liquid chromatography (SE-UPLC), reversed-phase high-performance liquid chromatography (RP-HPLC), ion-exchange high-performance liquid chromatography (IE-HPLC), reduced capillary electrophoresis sodium dodecyl sulfate (rCE-SDS), non-reduced capillary electrophoresis sodium dodecyl sulfate (nrCE-SDS), and free thiol (data not shown). The concentration of FXN fusion protein was determined by Western blot, and redox activity was determined using the HQ assay as described above.

FDRA mouse model = assay: Treatment of an FDRA mouse model; format: in vivo; details: data not shown
Description: (§1) FXN fusion protein having the amino acid sequence of SEQ ID NO: 12 comprises a cell penetrating peptide, HIV-TAT (SEQ ID NO: 4), and a full length hFXN (SEQ ID NO: 1), linked through a linker at the N-terminus of the hFXN.

FXN-deficient cell lines = assay: Genomic footprint of FXN-deficient cell lines before and after FXN fusion protein treatment; format: cell-based; details: data not shown
Description: as §1

[5] = Description: The goal of the first part of the experiment was to validate performance of the HQ assay at the conditions used for the HTS. To this end, the HQ assay was characterized by measuring statistical parameters, such as signal-to-background (S/B) ratio, Z′ factor (which is a measure of the statistical robustness of the assay readout), and intra- and inter-plate variability. To this end, two 96-well plates were each split into 9 sections: 4 sections in each plate contained an exemplary FXN fusion protein at the concentration of 10 μM (high control); 4 sections contained the exemplary FXN fusion protein at the concentration of 0.5 μM (low control); and 1 section contained only the assay mix without the FXN fusion protein (blank control).
H2DCF was activated by incubating in the dark 1 mL of 1 mM H2DCF-DA in 20 mL of 0.01 M NaOH for 30 minutes while stirring. Subsequently, 75 mL of 33 mM NaH2PO4 was added to the activation mixture to yield a final H2DCF concentration of 10 μM. This solution was stored at 4° C. and protected from light until use. The assay mix in each well contained 50 mM Tris-HCL (pH 8.0), 50 μM HQ, 1 μM MnCl2, 0.5 μM activated H2DCF and the exemplary FXN fusion protein at the concentration of 10 μM (high control), 0.5 μM (low control) and 0 μM (blank control). After the assay mix was added to the plate, the plate was immediately placed in the plate reader, and the kinetic read was initiated. The plate reader settings were as follows: 45-minute kinetic scan with a Fluorescent read (excitation 482/20, emission 530/25, and a gain of 50) every minute with a 3 second shake in between reads. Maximum initial velocity (Vi) was determined for each well by measuring the fastest change in arbitrary fluorescence unit (AFU) over 5 data points. The statistical parameters, such as signal-to-background (S/B) ratio, Z′ factor, and intra- and inter-plate variability were calculated to characterize the assay performance.

[6] = 10 μM FXN fusion protein, 5 μM HQ, 5 μM Fe(III) sulfate
Experimental: The goal of this experiment was to evaluate pH dependence of HQ-dependent superoxide generating activity of an exemplary FXN fusion protein. FXN fusion protein of SEQ ID NO: 12 was used in this experiment. Specifically, kinetics of superoxide generation by an exemplary FXN fusion protein was evaluated at pHs ranging from 7.0 to 9.0. Each reaction mixture contained 5 μM HQ, 5 μM Fe(III) sulfate, 0.05 μM H2DCF and 10 μM exemplary FXN fusion protein in 50 mM Tris-HCL at pH of 7.0, 7.4, 7.8, 8.0, 8.2, 8.5 and 9.0.
The assay plate was placed in the plate reader and the kinetic read began immediately after all assay ingredients were mixed together. The plate reader settings were as follows: 2-hour kinetic scan with a Fluorescent read (excitation 485/20, emission 528/25, and a gain of 50) every 5-minutes with a 10 second shake between reads. Maximum initial velocity (Vi) was determined for each well by measuring fastest change in arbitrary fluorescence unit (AFU) over 5 data points.

[7] = Drug substance (DS) control (stored at −80° C.)
[8] = Acid and alkaline control: 37° C. for 2 days
[9] = Acid stress: pH ≤4, at 37° C. for 2 days
[10] = Alkaline stress: pH ≥10, at 37° C. for 2 days
[11] = Heat stress: 50° C. for 2 hours
[12] = Oxidation control: 37° C. for 2 hours
[13] = Oxidation: 0.05% peroxide at 37° C. for 2 hours
[14] = Study control: 2-8° C. for 2 hours

## NC(=O)C1=CN([C@@H]2O[C@H](COP(=O)(O)OP(=O)(O)OC[C@H]3O[C@@H](n4cnc5c(N)ncnc54)[C@H](OP(=O)(O)O)[C@@H]3O)[C@@H](O)[C@H]2O)C=CC1 [NADPH]
FXN fusion protein
  effect on ROS production / redox activity of the FXN fusion protein: significantly diminished ROS production

## NC(=O)C1=CN([C@@H]2O[C@H](COP(=O)(O)OP(=O)(O)OC[C@H]3O[C@@H](n4cnc5c(N)ncnc54)[C@H](O)[C@@H]3O)[C@@H](O)[C@H]2O)C=CC1 [NADH]
FXN fusion protein
  effect on ROS production / redox activity of the FXN fusion protein: did not affect the redox activity

B1: FXN fusion protein: cell penetrating peptide HIV-TAT linked through a linker to the N-terminus of full length hFXN; amino acid sequence of SEQ ID NO: 12 (protein)
chain: MYGRKKRRQRRRGGMWTLGRRAVAGLLASPSPAQAQTLTRVPRPAELAPLCGRRGLRTDIDATCTPRRASSNQRGLNQIWNVKKQSVYLMNLRKSGTLGHPGSLDETTYERLAEETLDSLAEFFEDLADKPYTFEDYDVSFGSGVLTVKLGGDLGTYVINKQTPNKQIWLSSPSSGPKRYDWTGKNWVYSHDGVSLHELLAAELTKALKTKLDLSSLAYSGKDA
[1]
  lag time to ROS generation: approximately 2 hours
[2]; [7]
  Result (% activity): 100.2%
  Vi: (1126 Vi units)
[2]; SPL1: −60° C. for 1 month
  Result (% activity): 100%
  Vi: (1123 Vi units)
[2]; SPL2: 2-4° C. for 1 month
  Result (% activity): 66.4%
  Vi: (746 Vi units)
[2]; SPL3: 25° C. for 1 month
  Result (% activity): 23.4%
  Vi: (263 Vi units)
[2]; storage in conditions other than −60° C. for one month
  activity in the HQ Assay after storage: decreased activity
[3]
  enzymatic activity, as measured by ROS generation over time: possesses enzymatic activity
[4]; [8]
  Result (% activity): 79.7%
  Vi: (1,730 Vi units)
[4]; [9]
  Result (% activity): 23.7%
  Vi: (689 Vi units)
[4]; [10]
  Result (% activity): 0.02%
  Vi: (0.7 Vi units)
[4]; [11]
  Result (% activity): 96.9%
  Vi: (2,820 Vi units)
[4]; [12]
  Result (% activity): 59.5%
  Vi: (1,730 Vi units)
[4]; [13]
  Result (% activity): 2.2%
  Vi: (63 Vi units)
[4]; [14]
  Result (% activity): 100%
  Vi: (2,908 Vi units)
[4]; acid stress
  stability of HQ activity to acid stress: partly susceptible
[4]; alkaline stress
  stability of HQ activity to alkaline stress: susceptible
[4]; heat stress applied for 2 hours
  stability of HQ activity to heat stress: to a large extent, was resistant to heat stress
[4]; oxidation stress
  stability of HQ activity to oxidation stress: susceptible
FDRA mouse model
  cardiomyopathic phenotype, for example cardiac contractility: measurable improvement in the cardiomyopathic phenotype
FXN-deficient cell lines
  expression of a set of genes before and after treatment: significant difference in the expression of a set of genes
[5]; Plate 1, High control (10 µM FXN fusion protein)
  Mean Vi: 5390.0
[5]; Plate 1, Low control (0.5 μM FXN fusion protein)
  Mean Vi: 471.0
[5]; Plate 2, High control (10 μM FXN fusion protein)
  Mean Vi: 4995.1
[5]; Plate 2, Low control (0.5 μM FXN fusion protein)
  Mean Vi: 635.5
[5]; Plates 1 and 2 combined, High control (10 μM FXN fusion protein)
  Mean Vi: 5192.5
[5]; Plates 1 and 2 combined, Low control (0.5 μM FXN fusion protein)
  Mean Vi: 553.2
[6]; pH 7.0 to 9.0
  pH at which activity peaks: about 8.5
[6]; pH of 7.4 or lower
  superoxide-generating activity (Vi): almost no activity
